# Results published in US20240124560A1.
# Experiments:
# Assay in all cases: cell-based or functional assay
# [1] = target: HIV-1 Env of pseudovirus NIH-017_Du156.12 (HIV-1)
# [2] = target: HIV-1 Env of NIH-015_62357.14.D3.4589 (HIV-1)
# [3] = target: HIV-1 Env of NIH-116_T263.8 (HIV-1)
# [4] = target: HIV-1 Env of NIH-117_T278.5 (HIV-1)
# [5] = target: HIV-1 Env of pseudovirus NIH-043_ZM249M.B10 (HIV-1)
# [6] = target: HIV-1 Env of pseudovirus NIH-051_CNE17 (HIV-1)
# [7] = target: HIV-1 Env of NIH-024_ZM53M.PB12 (HIV-1)
# [8] = target: HIV-1 Env of NIH-011_1056.10.TA11.1826 (HIV-1)
# [9] = target: HIV-1 Env of NIH-010_1054.07.TC4.1499 (HIV-1)
# [10] = target: HIV-1 Env of pseudovirus NAC_MN (HIV-1) (UniProt P05877)
# [11] = target: HIV-1 Env of NIH-022_ZM233M.PB6 (HIV-1)
# [12] = target: HIV-1 Env of pseudovirus NAC_TRJO.58 (HIV-1)
# [13] = target: HIV-1 Env of NIH-104_3103.v3.c10 (HIV-1)
# [14] = target: HIV-1 Env of pseudovirus NIH-083_P0402 c2 11 (clade G) (HIV-1)
# [15] = target: HIV-1 Env of NIH-068_620345.c01 (HIV-1)
# [16] = target: HIV-1 Env of pseudovirus NIH-061_Q259ENVd2.17 (HIV-1)
# [17] = target: HIV-1 Env of pseudovirus NAC_SF162 (HIV-1)
# [18] = target: HIV-1 Env of NAC_YU2 (HIV-1) (UniProt P35961)
# [19] = target: HIV-1 Env of pseudovirus NAC_HxB2 (HIV-1) (UniProt P04578)
# [20] = target: HIV-1 Env of NIH-005_TRO.11 (HIV-1)
# [21] = target: HIV-1 Env of pseudovirus NAC_RHPA4.7 (HIV-1)
# [22] = target: HIV-1 Env of pseudovirus NIH-031_HIV-16055.2.3 (HIV-1)
# [23] = target: HIV-1 Env of NAC_89.6 (HIV-1)
# [24] = target: HIV-1 Env of isolate NIH-085_X2088 c9 (HIV-1)
# [25] = target: HIV-1 Env of NIH-017_Du156.12 (HIV-1)
# [26] = target: HIV-1 Env of pseudovirus NIH-114_T257.31 (HIV-1)
# [27] = target: HIV-1 Env of pseudovirus NIH-024_ZM53M.PB12 (HIV-1)
# [28] = target: HIV-1 Env of pseudovirus NHI-028_CAP210.E8 (HIV-1)
# [29] = target: HIV-1 Env of NIH-050_CNE21 (HIV-1)
# [30] = target: HIV-1 Env of pseudovirus NAC_JRFL (HIV-1)
# [31] = target: HIV-1 Env of pseudovirus NIH-018_Du172.17 (HIV-1)
# [32] = target: HIV-1 Env of pseudovirus NIH-069_C1080.c03 (HIV-1)
# [33] = target: HIV-1 Env of NAC_RHPA4.7 (HIV-1)
# [34] = target: HIV-1 Env of pseudovirus NIH-081_BJOX028000.10.3 (HIV-1)
# [35] = target: HIV-1 Env of pseudovirus NAC_BaL.26 (HIV-1)
# [36] = target: HIV-1 Env of pseudovirus NIH-039_Ce2060 G9 (HIV-1)
# [37] = target: HIV-1 Env of pseudovirus NIH-079_BJOX010000.06.2 (HIV-1)
# [38] = target: HIV-1 Env of pseudovirus NIH-029_HIV-001428.2.42 (HIV-1)
# [39] = target: HIV-1 Env of NIH-002_QHO692 .42 (HIV-1)
# [40] = target: HIV-1 Env of pseudovirus NIH-071_R1166.c01 (HIV-1)
# [41] = target: HIV-1 Env of pseudovirus NIH-072_R3265.c06 (HIV-1)
# [42] = target: HIV-1 Env of NIH-075_CNE8 (HIV-1)
# [43] = target: HIV-1 Env of pseudovirus NIH-040_Ce703010054 2A2 (HIV-1)
# [44] = target: HIV-1 Env of NIH-080_BJOX025000.01.1 (HIV-1)
# [45] = target: HIV-1 Env of pseudovirus NIH-004_PVO.4 (HIV-1)
# [46] = target: HIV-1 Env of NAC_BG505 (HIV-1)
substance,measurement,setting,value
VRC01 (antibody),neutralization IC50,[1],0.059 µg/mL
same,IC80 neutralization,[2],6.95 µg/mL
same,IC80 neutralization,[3],0.505 µg/mL
same,IC80 neutralization,[4],> 50 µg/mL
same,neutralization IC50,[5],0.071 µg/mL
same,neutralization IC50,[6],0.219 µg/mL
same,IC80 neutralization,[7],3.63 µg/mL
same,IC80 neutralization,[8],1.48 µg/mL
same,IC80 neutralization,[9],3.62 µg/mL
same,neutralization IC50,[10],0.01 µg/mL
same,IC80 neutralization,[11],5.69 µg/mL
same,neutralization IC50,[12],0.057 µg/mL
same,IC80 neutralization,[13],6.21 µg/mL
same,"IC50 (µg/ml), TZM-bl cell neutralization assay, pseudovirus",[14],0.04 µg/mL
same,IC80 neutralization,[15],> 50 µg/mL
same,neutralization IC50,[16],0.114 µg/mL
same,neutralization IC50,[17],0.262 µg/mL
same,IC80 neutralization,[18],0.69 µg/mL
same,neutralization IC50,[19],0.022 µg/mL
same,IC80 neutralization,[20],0.912 µg/mL
same,neutralization IC50,[21],0.035 µg/mL
same,neutralization IC50,[22],0.053 µg/mL
same,IC80 neutralization,[23],3.3 µg/mL
same,"IC80 (µg/ml), TZM-bl pseudovirus neutralization",[24],> 50 µg/mL
same,IC80 neutralization,[25],0.23 µg/mL
same,neutralization IC50,[26],1.61 µg/mL
same,neutralization IC50,[27],0.917 µg/mL
same,neutralization IC50,[28],> 50 µg/mL
same,IC80 neutralization,[29],0.848 µg/mL
same,neutralization IC50,[30],0.141 µg/mL
same,neutralization IC50,[31],> 50 µg/mL
same,neutralization IC50,[32],1.4 µg/mL
same,IC80 neutralization,[33],0.137 µg/mL
same,neutralization IC50,[34],0.141 µg/mL
same,neutralization IC50,[35],0.01 µg/mL
same,neutralization IC50,[36],0.109 µg/mL
same,neutralization IC50,[37],1.77 µg/mL
same,neutralization IC50,[38],0.019 µg/mL
same,IC80 neutralization,[39],7.93 µg/mL
same,neutralization IC50,[40],0.488 µg/mL
same,neutralization IC50,[41],0.126 µg/mL
same,IC80 neutralization,[42],0.514 µg/mL
same,neutralization IC50,[43],0.139 µg/mL
same,IC80 neutralization,[44],24.8 µg/mL
same,neutralization IC50,[45],0.192 µg/mL
same,IC80 neutralization,[46],0.213 µg/mL
PGZL1 (antibody),neutralization IC50,[1],0.623 µg/mL
same,IC80 neutralization,[2],> 50 µg/mL
same,IC80 neutralization,[3],8.18 µg/mL
same,IC80 neutralization,[4],> 50 µg/mL
same,neutralization IC50,[5],6.26 µg/mL
same,neutralization IC50,[6],12.4 µg/mL
same,IC80 neutralization,[7],> 50 µg/mL
same,IC80 neutralization,[8],14.9 µg/mL
same,IC80 neutralization,[9],20.2 µg/mL
same,neutralization IC50,[10],0.023 µg/mL
same,IC80 neutralization,[11],23.6 µg/mL
same,neutralization IC50,[12],> 50 µg/mL
same,IC80 neutralization,[13],> 50 µg/mL
same,"IC50 (µg/ml), TZM-bl cell neutralization assay, pseudovirus",[14],8.29 µg/mL
same,IC80 neutralization,[15],> 50 µg/mL
same,neutralization IC50,[16],> 50 µg/mL
same,neutralization IC50,[17],12.8 µg/mL
same,IC80 neutralization,[18],> 50 µg/mL
same,neutralization IC50,[19],0.121 µg/mL
same,IC80 neutralization,[20],11.8 µg/mL
same,neutralization IC50,[21],> 50 µg/mL
same,neutralization IC50,[22],10.9 µg/mL
same,IC80 neutralization,[23],> 50 µg/mL
same,"IC80 (µg/ml), TZM-bl pseudovirus neutralization",[24],> 50 µg/mL
same,IC80 neutralization,[25],2.5 µg/mL
same,neutralization IC50,[26],29.6 µg/mL
same,neutralization IC50,[27],> 50 µg/mL
same,neutralization IC50,[28],16.7 µg/mL
same,IC80 neutralization,[29],17.8 µg/mL
same,neutralization IC50,[30],> 50 µg/mL
same,neutralization IC50,[31],0.424 µg/mL
same,neutralization IC50,[32],1.73 µg/mL
same,IC80 neutralization,[33],> 50 µg/mL
same,neutralization IC50,[34],5.16 µg/mL
same,neutralization IC50,[35],> 50 µg/mL
same,neutralization IC50,[36],15 µg/mL
same,neutralization IC50,[37],1.66 µg/mL
same,neutralization IC50,[38],> 50 µg/mL
same,IC80 neutralization,[39],> 50 µg/mL
same,neutralization IC50,[40],4.87 µg/mL
same,neutralization IC50,[41],28 µg/mL
same,IC80 neutralization,[42],0.945 µg/mL
same,neutralization IC50,[43],48.9 µg/mL
same,IC80 neutralization,[44],29.3 µg/mL
same,neutralization IC50,[45],49 µg/mL
same,IC80 neutralization,[46],> 50 µg/mL
4E10 (antibody),neutralization IC50,[1],0.101 µg/mL
same,IC80 neutralization,[2],11.6 µg/mL
same,IC80 neutralization,[3],0.927 µg/mL
same,IC80 neutralization,[4],6.03 µg/mL
same,neutralization IC50,[5],1.11 µg/mL
same,neutralization IC50,[6],0.526 µg/mL
same,IC80 neutralization,[7],42.6 µg/mL
same,IC80 neutralization,[8],2.81 µg/mL
same,IC80 neutralization,[9],5.43 µg/mL
same,neutralization IC50,[10],0.005 µg/mL
same,IC80 neutralization,[11],4.99 µg/mL
same,neutralization IC50,[12],2.97 µg/mL
same,IC80 neutralization,[13],32.4 µg/mL
same,"IC50 (µg/ml), TZM-bl cell neutralization assay, pseudovirus",[14],0.084 µg/mL
same,IC80 neutralization,[15],3.06 µg/mL
same,neutralization IC50,[16],7.12 µg/mL
same,neutralization IC50,[17],1.97 µg/mL
same,IC80 neutralization,[18],> 50 µg/mL
same,neutralization IC50,[19],0.021 µg/mL
same,IC80 neutralization,[20],3.08 µg/mL
same,neutralization IC50,[21],4.66 µg/mL
same,neutralization IC50,[22],1.59 µg/mL
same,IC80 neutralization,[23],10.9 µg/mL
same,"IC80 (µg/ml), TZM-bl pseudovirus neutralization",[24],> 50 µg/mL
same,IC80 neutralization,[25],0.447 µg/mL
same,neutralization IC50,[26],1.03 µg/mL
same,neutralization IC50,[27],10.4 µg/mL
same,neutralization IC50,[28],0.847 µg/mL
same,IC80 neutralization,[29],2.15 µg/mL
same,neutralization IC50,[30],17.8 µg/mL
same,neutralization IC50,[31],0.102 µg/mL
same,neutralization IC50,[32],0.328 µg/mL
same,IC80 neutralization,[33],19.3 µg/mL
same,neutralization IC50,[34],0.45 µg/mL
same,neutralization IC50,[35],4.2 µg/mL
same,neutralization IC50,[36],1.24 µg/mL
same,neutralization IC50,[37],0.438 µg/mL
same,neutralization IC50,[38],5.54 µg/mL
same,IC80 neutralization,[39],25 µg/mL
same,neutralization IC50,[40],0.383 µg/mL
same,neutralization IC50,[41],0.491 µg/mL
same,IC80 neutralization,[42],0.27 µg/mL
same,neutralization IC50,[43],2.05 µg/mL
same,IC80 neutralization,[44],1.59 µg/mL
same,neutralization IC50,[45],9.59 µg/mL
same,IC80 neutralization,[46],4.88 µg/mL
